No end group written: not given here.
What was measured:
[1] = molecular target: gp41 of HIV-1 strain resistant to SEQ ID NO:114 peptide (HIV-1); experiment: cell-based or functional assay
[2] = molecular target: gp41 of HIV-1 strain sensitive to SEQ ID NO:114 peptide (HIV-1); experiment: cell-based or functional assay

Binder	IC50, in vitro infectivity assay [1] [µg/mL]	IC50, in vitro infectivity assay [2] [µg/mL]	IC90, in vitro infectivity assay [2] [µg/mL]	IC90, in vitro infectivity assay [1] [µg/mL]
{PEG‑6 diacid}-LTWQEWDREINNYTSLIYSLIEESQNQQEENEQELL (other, not fully specified; also: dimer: two peptides bound to PEG-6 diacid via N-termini) [conjugate comprising two molecules of SEQ ID NO:114 operably bound to PEG 6]	0.15	0.016	0.169	–
LTWQEWDREINNYTSLIYSLIEESQNQQEENEQELL [peptide comprising SEQ ID NO:114, synthetic peptide alone]	2.4	0.005	0.034	> 20

From patent publication US20040122214A1 (TRIMERIS, published 2004)
